Measurements published in patent publication US20090082268A1 (GEYMONAT S P A, published 2009).

Biological target: T1, human VEGFR-1/Fc (R&D Systems) (human, UniProt P17948 27-756, limits assumed)
T1 construct: Bought reagent, coated on the ELISA plate; also called receptor Flt-1; not shown: Fc part of the bought fusion
Experiment: ELISA: VEGFR-1/Fc coated, PlGF-1 diluted two-fold from 20 ng/ml, detected with biotinylated anti-human PlGF antibodies
Method: To test receptor binding, an ELISA assay was performed according to the following protocol: [0141] 1. Well of 96-well microtiter plate were coated with 200 μl of 1 μg/ml human VEGFR-1/Fc (R&D Systems) and incubated overnight at 4° C. [0142] 2. Two-fold dilution series starting at 20 ng/ml of various preparations of recombinant human PlGF-1 were prepared and added in a volume of 100 μl per well. The plate was incubated for 2 hours at room temperature. [0143] 3. Bound PlGF-1 was captured with biotinylated anti-human PlGF antibodies (R&D Systems) added in a volume of 100 μl per well for 1 hour at room temperature. [0144] 4. A 1:200 dilution of horseradish peroxidase-conjugated streptavidin (R&D Systems) was added and incubated for 20 min. at room temperature. [0145] 5. Substrate solution (TMB from Pierce) was added and after 15 min. the reaction was quenched with 2 M sulfuric acid. [0146] 6. The absorbance was measured at 450 nm.

T1 sequence (P17948 27-756 limits assumed): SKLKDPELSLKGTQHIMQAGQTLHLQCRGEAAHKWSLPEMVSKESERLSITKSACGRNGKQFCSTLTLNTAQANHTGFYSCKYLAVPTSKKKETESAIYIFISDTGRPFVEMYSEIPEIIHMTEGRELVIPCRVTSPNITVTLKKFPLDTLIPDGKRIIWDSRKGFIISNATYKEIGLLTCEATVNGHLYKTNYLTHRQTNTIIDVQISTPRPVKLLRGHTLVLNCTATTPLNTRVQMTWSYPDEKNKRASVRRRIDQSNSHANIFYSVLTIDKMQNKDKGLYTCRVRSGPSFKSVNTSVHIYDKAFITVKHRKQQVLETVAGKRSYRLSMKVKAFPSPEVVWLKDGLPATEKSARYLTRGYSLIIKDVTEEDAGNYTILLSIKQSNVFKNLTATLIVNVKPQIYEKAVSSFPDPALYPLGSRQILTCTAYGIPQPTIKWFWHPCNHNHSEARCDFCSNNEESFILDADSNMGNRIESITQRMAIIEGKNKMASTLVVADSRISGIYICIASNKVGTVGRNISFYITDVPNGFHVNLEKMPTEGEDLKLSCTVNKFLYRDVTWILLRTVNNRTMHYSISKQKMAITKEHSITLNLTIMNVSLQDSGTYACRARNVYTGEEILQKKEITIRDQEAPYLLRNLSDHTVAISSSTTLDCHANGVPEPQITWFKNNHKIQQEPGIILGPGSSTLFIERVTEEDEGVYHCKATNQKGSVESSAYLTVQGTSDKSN

B1: PlGF-1 mutein from Geymonat (recombinant human PLGF-1CG) (ligand)
chain: MLPAVPPQQWALSAGNGSSEVEVVPFQEVWGRSYCRALERLVDVVSEYPSEVEHMFSPSCVSLLRCTGCCGDENLHCVPVETANVTMQLLKIRSGDRPSYVELTFSQHVRCECRPLREKMKPERGGDAVPRR
notes: Described as 'a PlGF-1 mutein embodiment of the present invention'; also called Geymonat Mutein; Mutein Geymonat
binding result: binds
